Test: soluble on expression in E. coli; label from the status in PepcDB or PDB records
In the case of “MSSDLYANAVLYSEISQRNPELVSKMFNEATRKKLDAFLKDNEAPKLKDIVTDNVFKKRKRIASSSGNEPPVKKMAAKDSSDSDSSDDGAVKKNGVQKPVNVAAKKSATPVQKKAESSSSSDSDAPAKKLTPVKKPAQTPAQKKAASSSDSDSDDEPPKKAPAVTTKVAPKPMAKKQDTSDSDSDSEDSDDGKSKKANPVKVTPVANVLQKVVAKKAASSSSDSSDDEKKPAAKPTPAKPTPKPVVKKAESSSDSSDDEKKPVAKPAPAKATPKPAAKKADSSSDSSDDEAPAKKTPAKAAPKPVAKKAESSSDSSDDEKKPAAKPTPAKATPKPVAKKAESSSDSSDDEKKPVAKPAPAKATPKPVAKKAESSSDSSDDEKKPAAKPTPAKATPKPVAKKAESSSDSSDDEKKPVAKPTSAKATPKPAAKKADSSSDSSDDEAPAKKTPAKAAPKPASKKAESSSDSSDDEKPAAKSTPAKITPKPTAKKVASSSSDSSDDEKKPAAKPTPANATPKPVAKKAESSSDSSDDEKKPVAKPTSAKATPKPAAKKADLSSDFSDDEAPAKKTPAKAAPKPASKKAESSSDSSDDEKPAAKSTPAKTTPKPTAKKAASSSSDSSDDEKKPVAKPTSAKATPKPAAKKADSSSDSSDDEAPAKKTPVKPTPVKIVAKKVDSSSDSSDDEKKPTKATPVKVTPKSVTKKAAASSSDSSDDEKKPVVKQTPNVVPKKEKAASSSDDSSDDEKKPTAKPTPKATPKQSAKKADSSDDSSDDEAPAKKTPAKSTPAKTAVKKEASSSSDDSSDDEKTKKKSATTPAKSTPKTALKKAESSDSSDDDEDLPKPSKAVTPRPQRADSEESAETEESSSRTPALKAKPLATSTEKAVYENRKRKSSPFRRVQMTKDSVSEKFRNNQHDSHFDQWGQRANESLGKVVGKAFRHEKTKKKKGSYGGGPINQSINSIKFSDSDD”, the “soluble on expression in E. coli” value was “soluble”.
In the case of “MPIRAMEKATAGKLLTRAEALSLLTEGDLLALGRLADAVRRRMHPENLVTFVVDRNVNYTNVCESKCKFCAFYRDEAAPDAYLLAEEAIFAKIAELVEHGGTQLLMQGGLHPQLGIDWFEDLFRGIKARFPQVQNHSLSPAEITQIATVSKLTIPETVRRLREAGLDSIPGGGAEILVDSVRQEISPRKIGWEGWAAVMSEAARQGMATTATMMFGSRETPEDIVEHLFRVRELQAAGGSFTAFIPWTYQPGNTELGGTGATGVEYLKVLALSRIVLDNIPSIQASWVTQGAAMAQVSLFFGANDLGGTMLEENVVAAAGCTFRMSREEMVELIREAGFRAAQRTTLYSIIREY”, the “soluble on expression in E. coli” value was “not soluble”.
In the case of “AHHHHHHGSLKLVENVVGRVSEEENKVPEVQVPQSSIDEELKKIVEQIKARIYVVGVGGAGCNTVNRMMEVGVTGAKIIAVNTDAQDLLKVKAHQKILIGKELTRGLGAGNDPKIGEEAAKESERELRDALEGADMVFITCGLGGGTGTGAAPVIAEIARKMGALTVSVVTLPFTMEGIRRAKNAEYGLKRLVKYSDTVIVIPNDKLLEVAPKLPIQMAFKVADEILVQAVKGITELITKPGLVNLDFNDVRAVMKDGGVAMIGIGESDSEKRALEAAEQALNSPLLDVDISGATGALIHISGADVKLEEAQQIIEYVTRNVDPKAQVIWGIQLEPELEKTIRVMVVITGVTSRYITPEEETPLETPEESPSIEISIPEL”, the “soluble on expression in E. coli” value was “soluble”.
In the case of “MDVSLESLVNSLQATRSTLLSEIEMLNDTEVNVKPRRDKWSIIQILHHLHLVEQSVTSALVYALQKNERNMTPFKDLQLTLDRTHKREAPQQMQPTETLMKKQQGIQLLEHSRQELLHALHSVIDEKDLFENGLKHPVFNDLNLYQWVQFLDLHEQRHLTQLKEAKHAILQR”, the “soluble on expression in E. coli” value was “not soluble”.
With “MKFSVLMSLYIKENPQFLRECFESLVAQTRQADEIVLVFDGVVTPDLEFVVTEFETKLPLKLVKLPQNRGLGKALNEGLLHCDYDWVFRMDTDDICVPDRFEKQVAFIEQHPESIIFGGQIAEFGKNVNDIVAYRNVPTSAQEIIKFTQKRCPFNHMTVAYQKSAVINCGGYEDLQEDYYLWIKLVAQGLYMANLPDILVYARVGNGMVLEHHHHHH” the “soluble on expression in E. coli” value was “not soluble”.
For “MGHHHHHHSHSAAKGTGITRKKTFKEVANAVKISASLMGTVMAKRVKATILYGSETGRAQSYAQQLGRLFRKAFDPRVLCMDEYDVVSLEHETLVLVVTSTFGNGDPPENGESFAAALMEMSGPYN”, the “soluble on expression in E. coli” value was “not soluble”.

Source: the DeepSol protein solubility set
